Test results: the supplement of paper PMC10126150
± gives the standard deviation of the averaged measurements.

What follows are sequences tested on ATP (assay: switch fluorescence ratio, 500 uM ATP over buffer (Cy3 cluster intensity, sum of 5 cycles each) (fold (ratio)); higher = stronger signal-on switching upon ATP binding; sequences stand for … in TCGTCGGCAGCGTCAGATGTGTATAAGAGACAGTTTTTTTTTTTTTTTTTTTTTTTTT…TC). Conditions: aptamer strand: ATP DNA aptamer (quencher-CACCTGGGGGAGTATTGCGGAGGAAGG + anchor), 100 nM annealed; ATP concentration: 500 uM.
Method in brief: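 Exposure to 500 uM ATP lasted 15 min at 22 °C before imaging, and a selection-buffer image was taken beforehand, for Cy3-labelled switching-strand clusters on a modified Illumina MiSeq flow-cell annealed to 100 nM quencher-labelled ATP aptamer. Five buffer/ATP cycles were run with NaOH stripping and re-annealing between them. The fluorescence ratio per cluster is summed target-cycle over summed buffer-cycle Cy3 intensity, averaged per switch-domain sequence. Clusters outside 100-1000 RFU were excluded.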

Sequence	switch fluorescence ratio
TCGGACGGGC	1.26 ± 0.18
AAGTTGGGAA	1.02 ± 0.042
TCAAACGAC	1.08 ± 0.011
AGAAACGGAG	1.02 ± 0.016
AGTAGGGGGT	1.01 ± 0.022
GGGGCTAGAG	1.4 ± 0.77
GGGTCAACGT	0.987 ± 0.015
AAGGTTGGTG	1 ± 0.034
TAGGGTGGGA	0.99 ± 0.025
ATGTTGAGCC	0.9874 ± 0.0022
TGATTAGTTG	0.993 ± 0.02
ATAATGTTGT	0.991 ± 0.031
TACAGGGAGT	1.06 ± 0.047
TTGCTTTTGC	1 ± 0.023
ACAAGGGGGA	1.02 ± 0.013
TGTTATTTGT	0.975 ± 0.048
CCTGTTTGTT	0.967 ± 0.038
GATGATTATC	0.986 ± 0.022
TAAGAACGAT	0.987 ± 0.053
TTAGATCAGC	0.99 ± 0.03
ATGGAGGCGG	1.04 ± 0.04
TGTGTTCACT	1.01 ± 0.036
TGGGTTAACT	1.02 ± 0.041

Sequence	switch fluorescence ratio
GACCGTAATG	1.05 ± 0.03
GATAAAGACG	0.9893 ± 0.0059
CGTGGATGAC	0.9939 ± 0.0096
GACACGTGGG	1.02 ± 0.055
TTGGTAAAAA	1.25 ± 0.41
TAATTCCGGG	1.01 ± 0.013
CAGGTTGATG	1.01 ± 0.032
TGATGGATAG	0.995 ± 0.047
TGATGGCAGT	1.02 ± 0.031
CGGCTGGTAC	1.86 ± 0.027
GAAACTATTT	1.03 ± 0.05
TCGGGGTGTT	1.001 ± 0.0096
TGTGGTATTT	0.972 ± 0.027
AACAGCGGGC	1.03 ± 0.084
GTCGGTAAAC	1.06 ± 0.014
AAGGTAGAAA	1.03 ± 0.016
TGTTTTAGG	0.998 ± 0.048
CGTATGTTGG	1.04 ± 0.012
AAGGAAGTGG	0.99 ± 0.022
AGACGGAAAG	0.982 ± 0.015
CGAGTTAATT	1.014 ± 0.0097
CCTTGCCGGT	1.022 ± 0.0094
GGGAGACTCG	0.96678 ± 0.00026

Sequence	switch fluorescence ratio
ATGTTATGG	1.01 ± 0.011
CGGACGTTGG	0.973 ± 0.045
TCGGGAAGGG	0.991 ± 0.014
GCTTTATGCT	0.9714 ± 0.0025
AGCCATTATT	0.976 ± 0.02
CATGGGGGTA	0.982 ± 0.026
ACGGTATTTT	1.09 ± 0.052
AGTAACCAAA	1.04 ± 0.097
AAGGGAAGTG	0.982 ± 0.069
ACATGCTCCC	1.73 ± 0.13
TGATGGGCGT	0.9801 ± 0.0016
TCTAGGCCTC	1.019 ± 0.0038
GCGGTTGTTC	0.995 ± 0.034
ATGAAGTGAG	1.01 ± 0.027
GGGTCATTGT	1.03 ± 0.032
TATAAACCGC	1.22 ± 0.11
TCCGGGAATT	1.02 ± 0.021
AACTTTGTTT	0.9832 ± 0.0047
CGGGGTTCCG	0.9532 ± 0.0064
GCCGAAGGGT	1.02 ± 0.03
TTATGCGTTT	1.2 ± 0.28
TATATCAGTC	1.02 ± 0.058
TCCACTGGAT	1.03 ± 0.013

Sequence	switch fluorescence ratio
TAGGGGAGAC	1.06 ± 0.047
TATGAAAGTA	0.999 ± 0.033
ATGGAACTTG	0.9943 ± 0.0059
GAGGGGACGA	0.998 ± 0.011
ATTGTTGTTC	1.06 ± 0.057
TACGTTGGCA	1.03 ± 0.035
TTCTAGCTAT	1.58 ± 0.78
AATCATATTT	1.02 ± 0.018
TTGAAAAGAT	1.05 ± 0.04
TGGCGTGTTA	1.02 ± 0.044
TATCGGCAAT	4.42 ± 0.76
GGTGGAGATC	1 ± 0.051
AGTGCGTTTA	1 ± 0.014
GTGGGGAAGG	1.02 ± 0.054
GCTTGGACTA	0.967 ± 0.011
CGAATCGCCT	1 ± 0.022
TATAGAGATG	1.01 ± 0.036
CGCATGTACG	1.14 ± 0.16
AAAAATTTGT	0.993 ± 0.05
CGAAGGGAAA	1.12 ± 0.19
TAGCTAGCGT	1.01 ± 0.019
ATTGTGACTG	0.975 ± 0.037
TCGGTGGGTA	0.983 ± 0.013

Sequence	switch fluorescence ratio
AATTGGGCTA	0.9994 ± 0.0056
CGGGGGGGA	1.0242 ± 0.00033
CAAAGTGTGG	0.989 ± 0.054
TATCGGGGT	0.989 ± 0.013
TTTTAGTTTA	1.01 ± 0.031
GGGAGGAGGG	0.976 ± 0.035
AATTCGCAGT	1.17 ± 0.23
GTTTTCCCGT	1.03 ± 0.027
TGGTAGGCGT	0.987 ± 0.031
AGTCAGAGTA	0.9821 ± 0.004
TCGCTTTTGG	1.02 ± 0.033
GGTTGTATCG	1 ± 0.05
TGGGGTTGCA	0.99 ± 0.015
AAGTTCTTTA	1.02 ± 0.022
GCACGGGGGT	1.05 ± 0.045
ATTTATTGGT	1.007 ± 0.0062
GTTTCAAACG	0.971 ± 0.025
TTGGAGTTTG	1.02 ± 0.051
GCTAACGGTT	0.981 ± 0.011
TCTAACTTAG	1.043 ± 0.0025
TATAGGCGGT	1.12 ± 0.2
TCTTTTGGAT	0.994 ± 0.019
TTCAAGGGGA	1.06 ± 0.13

Sequence	switch fluorescence ratio
CTTTAAGGTG	1.39 ± 0.062
ACTTATAATA	1.04 ± 0.038
AGTCATTTTA	0.999 ± 0.028
TTTTGGCACG	0.988 ± 0.0014
GGCGGTTTGG	1.002 ± 0.0058
GAAATATGTG	0.9885 ± 0.0022
GCGAGGGATG	1.002 ± 0.0043
AGCGCAATGA	3 ± 0.32
GATTGAACGG	0.997 ± 0.0086
TTAGTTTTTG	0.98 ± 0.017
TATTTTTCTC	0.983 ± 0.034
TTCTGGGGGC	1.05 ± 0.064
TATCCTGTTT	1.04 ± 0.011
AGGGAAGGAA	1.01 ± 0.037
ACTGACTGGT	1.06 ± 0.037
ATGGGAATAC	2.59 ± 0.28
GCCTGAAGGG	1 ± 0.014
AGTTCAGAAC	0.9899 ± 0.0075
GGAATCTGGG	0.983 ± 0.05
AATCATTTTG	1 ± 0.018
CCTTGGGGAT	1.11 ± 0.12
TTACTTCAGG	1.032 ± 0.0026
AATTCCGGGT	1.02 ± 0.031

Sequence	switch fluorescence ratio
CCGCCCGGAT	1.14 ± 0.018
TTAATTACCA	0.984 ± 0.029
CATGGTATTA	1.01 ± 0.044
ACGGGCTTTA	1.03 ± 0.026
GGGACATAGT	0.9616 ± 0.0037
ATTAATGGCG	0.9554 ± 0.009
TACGTCAGTC	1.05 ± 0.028
CGCGGGGAGC	1.07 ± 0.088
GGGTGTAGTG	0.988 ± 0.024
TTATGTTAGG	0.97498 ± 0.00083
GCGTTTTGTC	0.96229 ± 0.00085
TTGTGTTCTT	1.01 ± 0.026
TTAAGGTGTG	1.02 ± 0.041
TCGGACTCGT	1.03 ± 0.044
TGGTTAGGTT	0.966 ± 0.013
CTCAGCCATT	1.36 ± 0.039
TAGGCTCCAA	1.01 ± 0.02
AGTGTTAGGA	1.02 ± 0.011
TGGTGGAGCA	0.986 ± 0.024
